Test results: the nanobody polyreactivity screen of Harvey et al. (2022)

assay: yeast display, Sf9 membrane polyspecificity reagent, FACS + sequencing; frameworks hold sequencing errors
In short: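 After 36–48 hours of galactose induction, yeast (Saccharomyces cerevisiae BJ5465) displaying a synthetic nanobody library were stained at 4 °C for 1 hour with 10% biotinylated, detergent-solubilized Sf9 membrane reagent. Streptavidin microbeads enriched the stained cells before FACS sorting into low and high (top ~1%) gates on anti-HA and streptavidin fluorescence. Each clone's polyreactivity label reflects its gate of origin.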

Sequence | polyreactivity (PSR sort gate)
QVQLVESGGGLVQAGGSLRLICAASGIIFGGYDMGWYRQAPGKERELVAGIRSGGSTYYADSVKGRFTISRDNAKNTVYLQMNSLKPEDTAVYYCAKYVPIPYYSYLFGSYDYWGQGTQVTVSS | low polyreactivity
QVQLVESGGGLVQAGGSLRLICAASGIIFSSNAMGWSRQAPGKERELVAAISNTGRTNYADSVKGRFTISRDNAKNTVYLQLNSLKPEDTAVYYCAARLSRRYYSYYYWGQGTQVTVSS | high polyreactivity
QVQLVESGGGLVQAGGSLRLICAASGIIFTYNAMGWYRQAPGKERELVAAINGGSSTNYADSVKGRFTISRDNAKNTVYLQMNSLKPEDTAVYDCAADVIPDGVKKPRMYYWGQGTQVTVSS | low polyreactivity
QVQLVESGGGLVQAGGSLRLICAASGIIFVPNAMGWYSQAPGKERELVAAIDRGGGTTYADSVKGRFTISRDNAKNTVYLQMNSLKPEDTAVYYCAAAWGVGPDQGHDYWGQGTQVTVSS | low polyreactivity
QVQLVESGGGLVQAGGSLRLICAASGITFAWYAMGWYRQAPGKERELVAAIDDRGGSTYYADSVKWRFTISRDNAKNTVYLQMYSLKPEDTAVYYCNADTPSYEPYRLDYLGQGTQVTVSS | low polyreactivity
QVQLVESGGGLVQAGGSLRLICAASGITFNKYSMGWYRQAPGKERELVAAISSRGCSTYYADSVKGRFTISRDNAKNTVYLQMNSLKPEYTAVYYCAAERGTTYAYDYWGQGTQVTVSS | high polyreactivity
QVQLVESGGGLVQAGGSLRLICAASGITFTGYAMGWYRQAPGKERELVAAITRRGGRTYYADSVKGRFTISRDNAKNTVYLQMNSLKPEDTAVYYCARDNGSPYHYYYWGQGTQVTVSS | high polyreactivity
QVQLVESGGGLVQAGGSLRLICAASGITFYYYAMGWYRQAPGKERELVAAITFTGGSTYYADSVKGRFTISRDNAKNTVYLQMNSLKPEDTAVYYCNRLGPLGDQQQYDYWGQGTQVTVSS | low polyreactivity
QVQLVESGGGLVQAGGSLRLICAASGLIFWGYAMGWYRQAPGKERELVAAISSSGGSTYYADSVKGRFTISRDNAKNTVYLQINSLKPEDTAVYYCNADYTYYPGYDYWGQGTLVTVSS | low polyreactivity
QVQLVESGGGLVQAGGSLRLICAASGLTFSGYVMAWYRQAPGKERELVAAISLSGGSTYYADSVKGRFTISRDNAKNTVYLQMNSLKPEDTAVYYCAASTRFYNSYRREYWGQGTQVTVSS | high polyreactivity
QVQLVESGGGLVQAGGSLRLICAASGLTFWVYTMGWYRQAPGKERELVARITSRGASTYYADSVKGRFTISRDNAKNTVYLQMNSLKPEDTAVYYCATDRYRIYPDYDYWGQGTQVTVSS | high polyreactivity
QVQLVESGGGLVQAGGSLRLICAASGLTFYVYAMGWYRQAPGKERELVAAISQRGGSTYYADSVKGRFKISRDNAKNTVYLQMNSLNPEDTAVYYCAKYTVQYAISHYDYWGQGTQVTVSS | high polyreactivity
QVQLVESGGGLVQAGGSLRLICAASGNTFKDYTMVWYIQAPRKERDLVASINSGGSTNYADSVKGRFTISRDNAKNTVYLQMNSLKPEDTAVYYCAKRAWSDYNPIDYWGQGTQVSVSS | low polyreactivity
QVQLVESGGGLVQAGGSLRLICAASGNTFNVYAMVWYRHAPGKERELVAAITLSGGSTYYADSVKGRFTISRDNAKNTVYLQMNSLKPEDTAVYYCNAEDDGTDYDYWGQGTQVTVSS | low polyreactivity
QVQLVESGGGLVQAGGSLRLICAASGNTFTGYVMGWNRQAPGKEREYVAAIRSGGSTYYADSVKGRFTISRDNAKNTVYLQMNSLKPEDTSVYYCAKCVTPYRTSAYGYWGQGTQVTVSS | high polyreactivity
QVQLVESGGGLVQAGGSLRLICAASGRIFATYTMGWYRQAPGKERELVAAISRNGGSTYYADSVKGRFTISRDYAKNTVYLQMNSLKTEDTAVYYCNAERRDDRGFDYWGQGTQVTVSS | low polyreactivity

Sequence | polyreactivity (PSR sort gate)
QVQLVESGGGLVQAGGSLRLICAASGRIFDKNAMGWYRQAPGKERELVAAINRSGGRTYYADSVKGRFTISRDNAKNTVYLQMNSLKPEDTAVYYCAADTQGSRYDYWGQGTQVTVSS | high polyreactivity
QVQLVESGGGLVQAGGSLRLICAASGRIFDPYAMGWYRQAPGKERELVASISWSGGRTYYADSVKGRFTISRDNAKNTVYLQMNSLKPEDTAVYYCAARQWYRYKVRFDYWGQGTQVTVSS | high polyreactivity
QVQLVESGGGLVQAGGSLRLICAASGRIFEKYAMGWYRQEPGKERELVAAISSSGGSTYYADSVKGRFTISRDIAKNTVYLQMNSLKPDDTAVYYCAKLVVVPFYYWGQGTQVSVSS | high polyreactivity
QVQLVESGGGLVQAGGSLRLICAASGRIFFIYAMGWYRQAPGKERELVAGINRTGGSTYYADSVKGRFTISRDNAKNSVYLHMNSLKPEDTAVYYCAAVSYYASDYRYDYWGKGTQVTVSS | low polyreactivity
QVQLVESGGGLVQAGGSLRLICAASGRIFGIYAMGWYRQAPGKERELVARITGGGSTNYADSVKGRFTISRDNPKNTVYLQMNSLNPEDTAVYYCAANVRRIVGNITRYDYWGQGTQVTVSS | low polyreactivity
QVQLVESGGGLVQAGGSLRLICAASGRIFGRNAMGWYRQARGKERELVAGISSGGTTDYADSVKGRFTISRDNAKNTVYLQMNSLKPEDTAVYYCNVDNDDSAFYAIFVLYDYWGEGTQVTVSS | low polyreactivity
QVQLVESGGGLVQAGGSLRLICAASGRIFHVNAMGWYRQAPGKERELVAAISTSGGRTYYADSVKGRFTISRDNAKNTVYLQMNSLKPEDTAVYYCAAVSRAPGLRYDYWGQGTQVTVSS | high polyreactivity
QVQLVESGGGLVQAGGSLRLICAASGRIFLYYAMGWYRQAPGKERELVADINSGGNTTYADSVKGRFTISRDNAKNTVYLQMNSLKPEDTAVYYCAADPVFDLWEFVLDYGYDYWGQGTQVTVSS | low polyreactivity
QVQLVESGGGLVQAGGSLRLICAASGRIFNVYAMGWYRQAPGKETELVASITSAGSTYYADSVKGRFTISRDNAKNTVYLQMNSLKPEDTAVYYCNAESYSTWSFGHRYEYDYWGQGTQVTVSS | low polyreactivity
QVQLVESGGGLVQAGGSLRLICAASGRIFPDYDMGWYRQAPGKERELVAAITQRGGSTYADSVKGRFTISRDNAKNTVYLQMNSLKPEDTAVYYCNARWQRPYDYWGQGTQVTVSS | low polyreactivity
QVQLVESGGGLVQAGGSLRLICAASGRIFRGNAMGWYRQAPGKERELVAAISSGGSTNYADSVKGRFTISRDNEKNTVYLQMNSLKPEDTAVYYCAASRVRSYFGRYYWGQGTQVTVSS | high polyreactivity
QVQLVESGGGLVQAGGSLRLICAASGRIFRIYAIGWYRQAPGKERELVARITYSGGSTYYADSVKGRFTISRDNAKNSVYLLMNSLKPEETAVYYCAADWLGYQYGYWGQGTQVTVSS | low polyreactivity
QVQLVESGGGLVQAGGSLRLICAASGRIFRPYAMGWYRQAPGKEREFVATIRFTTGRTYYADSVKGRFTISRDNAKNTVYLQMNSLKPEDTAVYYCAADFAFVNYAKISYTTHDYWGQGTQVTVSS | high polyreactivity
QVQLVESGGGLVQAGGSLRLICAASGRIFSTYAMGWYRQAPGKERELVAAINKIGGSTYYADSVKGRFTISRDNAKNTVYLQMNSLKPEDTAVYYCAADAPYYPVRRYYYWGQGTQVTVSS | low polyreactivity
QVQLVESGGGLVQAGGSLRLICAASGRIFVINAMGWYRQAPGKERELVAAITGGGSTNYADSVKGRFTISRDNAKNPVYLQMNSLKPEDTAVYYCAADYRPVRRFYYSRYDDWGQGTQVTVSS | low polyreactivity
QVQLVESGGGLVQAGGSLRLICAASGRIFYYNAMGWYRQAPGKERELVAVITRSGGRTFYADSVKGRFTISRDNAKNTGYLQMNSLKPEDTAVYYCAARYRYYPVTTRGYYWGQGTQVTVSS | high polyreactivity
